The target of the series is type I collagen (Rattus norvegicus) (UniProt P02454+P02466). To be noted: maximum binding at 12-18% DNA mass fraction; binding decreases at higher DNA fraction, no fibers at ~45% DNA; collagen species not stated in this example.

For one sequence, binding (ug ssDNA/ug collagen) results are on record in patent US20240026334.

Sequence of type I collagen (Rattus norvegicus) (P02454 152-1207, chain 1 of 2): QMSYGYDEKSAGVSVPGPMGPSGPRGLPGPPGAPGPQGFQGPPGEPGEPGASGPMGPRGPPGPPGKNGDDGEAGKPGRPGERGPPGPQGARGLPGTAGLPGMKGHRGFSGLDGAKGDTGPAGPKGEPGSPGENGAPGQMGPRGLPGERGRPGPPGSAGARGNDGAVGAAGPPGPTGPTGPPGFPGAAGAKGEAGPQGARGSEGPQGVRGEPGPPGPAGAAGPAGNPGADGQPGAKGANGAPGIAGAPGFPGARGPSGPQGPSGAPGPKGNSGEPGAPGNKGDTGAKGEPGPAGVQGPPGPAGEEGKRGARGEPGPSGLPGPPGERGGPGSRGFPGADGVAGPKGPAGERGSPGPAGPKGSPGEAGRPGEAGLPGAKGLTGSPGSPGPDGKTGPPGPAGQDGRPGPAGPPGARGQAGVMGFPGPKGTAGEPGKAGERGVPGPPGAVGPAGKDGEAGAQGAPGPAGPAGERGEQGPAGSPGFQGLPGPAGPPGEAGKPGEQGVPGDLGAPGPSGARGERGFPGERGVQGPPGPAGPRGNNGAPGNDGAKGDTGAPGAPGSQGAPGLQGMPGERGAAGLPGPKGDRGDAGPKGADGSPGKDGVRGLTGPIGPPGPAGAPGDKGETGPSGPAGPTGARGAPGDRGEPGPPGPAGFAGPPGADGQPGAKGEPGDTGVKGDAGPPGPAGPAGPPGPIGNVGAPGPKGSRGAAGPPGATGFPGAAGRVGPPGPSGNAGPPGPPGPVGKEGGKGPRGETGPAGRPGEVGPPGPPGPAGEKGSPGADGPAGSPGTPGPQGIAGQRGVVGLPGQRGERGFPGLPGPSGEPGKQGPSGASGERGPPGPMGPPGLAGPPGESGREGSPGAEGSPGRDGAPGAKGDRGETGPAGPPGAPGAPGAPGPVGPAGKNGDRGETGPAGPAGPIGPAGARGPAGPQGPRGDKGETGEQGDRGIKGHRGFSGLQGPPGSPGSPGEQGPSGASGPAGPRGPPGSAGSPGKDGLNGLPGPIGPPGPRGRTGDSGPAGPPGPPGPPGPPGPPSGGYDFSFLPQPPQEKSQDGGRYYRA
Sequence of type I collagen (Rattus norvegicus) (P02466 86-1125, chain 2 of 2): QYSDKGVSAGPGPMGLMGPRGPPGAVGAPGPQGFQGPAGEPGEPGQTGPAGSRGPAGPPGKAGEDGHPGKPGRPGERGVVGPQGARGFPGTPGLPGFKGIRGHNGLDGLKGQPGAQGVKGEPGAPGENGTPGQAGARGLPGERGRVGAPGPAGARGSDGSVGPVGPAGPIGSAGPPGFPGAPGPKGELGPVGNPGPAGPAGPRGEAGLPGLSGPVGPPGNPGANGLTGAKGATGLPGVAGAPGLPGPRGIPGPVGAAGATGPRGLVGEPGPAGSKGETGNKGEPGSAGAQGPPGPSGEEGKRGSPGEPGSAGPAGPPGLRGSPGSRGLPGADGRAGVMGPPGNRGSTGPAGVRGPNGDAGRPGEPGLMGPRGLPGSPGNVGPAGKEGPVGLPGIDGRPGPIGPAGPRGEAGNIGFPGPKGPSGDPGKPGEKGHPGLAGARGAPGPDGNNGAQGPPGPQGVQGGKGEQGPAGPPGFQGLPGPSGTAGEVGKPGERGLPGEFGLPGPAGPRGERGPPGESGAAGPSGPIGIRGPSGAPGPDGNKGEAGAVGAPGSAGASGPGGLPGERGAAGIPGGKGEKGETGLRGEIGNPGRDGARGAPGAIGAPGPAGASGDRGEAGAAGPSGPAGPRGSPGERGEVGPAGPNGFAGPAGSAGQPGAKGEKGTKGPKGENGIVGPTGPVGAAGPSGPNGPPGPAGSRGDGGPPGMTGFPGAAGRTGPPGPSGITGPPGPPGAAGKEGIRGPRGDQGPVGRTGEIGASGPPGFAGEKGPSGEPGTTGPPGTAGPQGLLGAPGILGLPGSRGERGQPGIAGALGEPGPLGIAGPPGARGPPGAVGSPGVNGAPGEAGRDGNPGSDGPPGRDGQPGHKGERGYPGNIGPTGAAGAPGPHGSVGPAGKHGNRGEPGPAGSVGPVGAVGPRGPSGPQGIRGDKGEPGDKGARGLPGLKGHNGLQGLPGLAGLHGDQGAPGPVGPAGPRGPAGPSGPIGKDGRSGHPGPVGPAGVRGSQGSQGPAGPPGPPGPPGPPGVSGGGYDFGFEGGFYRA

The sequence “AATTTAGGAGCTGAAGGTCAGGGCACCAGCAGCCTTTGGAAGCCTAVAGGACAACAGTCAGCCTGGCTAGAAAAAAAAACAATGTCACAG [90 nt random ssDNA oligomer]” returned a binding (ug ssDNA/ug collagen) of 0.15.
